The record followed here is PMC3925748.

In this test the target is FUS (full-length recombinant protein; tag not told for these experiments) (UniProt P35637). The test is described as follows: cross-linking.

For the substance “FUS (full-length recombinant protein; tag not told for these experiments) (from UniProt P35637 1-526) (natural protein)”, the stoichiometry N (usually a count of units in the complex or per binding partner) was < 5.
